Data from US20230087785A1, “Leucine-Rich Repeat Kinase 2 Allosteric Modulators” (VIB VZW, priority 2020, published 2023).

B1: Nb42: LRRK2-specific Nanobody, SEQ ID NO: 6 (protein)
VHH: MAQVQLVESGGGLVQAGGSLRLSCAASGDVNYAVGWFRQAPRKEREFVAAINWRGDNTDYTDSVKGRFTISRDNAKNTVYLQMNSLKPEDTAVYYCAAKSAPYWYSDIAPDYWGQGTQVTVSS
modifications: Nanobody CA14259
B2: Nb23: LRRK2-specific Nanobody, SEQ ID NO: 3 (protein)
VHH: MAQVQLVESGGGLVQAGGSLRLSCAASGRTFSRYTMGWFRQAPGKDREFVARITTSGAVTTYADSAKGRFTISRDNAKNTVYLQMNTLKPEDTAVYYCAAGQGQLSSQSRFVDYWGQGTQVTVSS
modifications: Nanobody CA13612
B3: Nb22: LRRK2-specific Nanobody, SEQ ID NO: 9 (protein)
VHH: MAQVQLVESGGGLVQAGGSLRLSCAASGRTFSSYTMGWFRQAPGKEREFVAAIRWSGGSTYYADSVKGRFTISRDNAKNTVYLQMNSLKPEDTAVYYCAASDRGGFIATSGGWMDYWGKGTQVTVSS
modifications: Nanobody CA13611
B4: Nb1: LRRK2-specific Nanobody, SEQ ID NO: 1 (protein)
VHH: MAQVQLVESGGGLVQAGGSLRLSCVASGRIFSGNAMGWYRQAPGRQRELVAGITNGGYTNYRQFVKGRFTISRDNAKRTVYLQMNSLKPEDTAVYYCNALDREARQVDYWGQGTQVTVSS
modifications: Nanobody CA12610
B5: Nb6: LRRK2-specific Nanobody, SEQ ID NO: 2 (protein)
VHH: MAQVQLVESGGGLVQAGGSLRLSCAASGSIFSPTAMGWYRQAPGKERELVAGITSGGYTNYRNFARGRFTISRDNAKKTVYLQMNSLNPEDTAVYYCNTLTISWSWGQGTQVTVSS
modifications: Nanobody CA12618

What follows are molecules tested against T1, LRRK2 (wild-type) (Homo sapiens, UniProt Q5S007, M2397T/R50H) (assay: In vitro peptide phosphorylation (PhosphoSens kinase) assay). Conditions: 25 μM Nb; 10 μM AQT0615 peptide.
T1 construct: Full-length human LRRK2 was expressed and purified based on previously developed protocols; SF tag (FLAG-tag + Twin-Strep-tag); made in house; host or cells: HEK 293T
T1 sequence (Q5S007 whole entry R50H/M2397T): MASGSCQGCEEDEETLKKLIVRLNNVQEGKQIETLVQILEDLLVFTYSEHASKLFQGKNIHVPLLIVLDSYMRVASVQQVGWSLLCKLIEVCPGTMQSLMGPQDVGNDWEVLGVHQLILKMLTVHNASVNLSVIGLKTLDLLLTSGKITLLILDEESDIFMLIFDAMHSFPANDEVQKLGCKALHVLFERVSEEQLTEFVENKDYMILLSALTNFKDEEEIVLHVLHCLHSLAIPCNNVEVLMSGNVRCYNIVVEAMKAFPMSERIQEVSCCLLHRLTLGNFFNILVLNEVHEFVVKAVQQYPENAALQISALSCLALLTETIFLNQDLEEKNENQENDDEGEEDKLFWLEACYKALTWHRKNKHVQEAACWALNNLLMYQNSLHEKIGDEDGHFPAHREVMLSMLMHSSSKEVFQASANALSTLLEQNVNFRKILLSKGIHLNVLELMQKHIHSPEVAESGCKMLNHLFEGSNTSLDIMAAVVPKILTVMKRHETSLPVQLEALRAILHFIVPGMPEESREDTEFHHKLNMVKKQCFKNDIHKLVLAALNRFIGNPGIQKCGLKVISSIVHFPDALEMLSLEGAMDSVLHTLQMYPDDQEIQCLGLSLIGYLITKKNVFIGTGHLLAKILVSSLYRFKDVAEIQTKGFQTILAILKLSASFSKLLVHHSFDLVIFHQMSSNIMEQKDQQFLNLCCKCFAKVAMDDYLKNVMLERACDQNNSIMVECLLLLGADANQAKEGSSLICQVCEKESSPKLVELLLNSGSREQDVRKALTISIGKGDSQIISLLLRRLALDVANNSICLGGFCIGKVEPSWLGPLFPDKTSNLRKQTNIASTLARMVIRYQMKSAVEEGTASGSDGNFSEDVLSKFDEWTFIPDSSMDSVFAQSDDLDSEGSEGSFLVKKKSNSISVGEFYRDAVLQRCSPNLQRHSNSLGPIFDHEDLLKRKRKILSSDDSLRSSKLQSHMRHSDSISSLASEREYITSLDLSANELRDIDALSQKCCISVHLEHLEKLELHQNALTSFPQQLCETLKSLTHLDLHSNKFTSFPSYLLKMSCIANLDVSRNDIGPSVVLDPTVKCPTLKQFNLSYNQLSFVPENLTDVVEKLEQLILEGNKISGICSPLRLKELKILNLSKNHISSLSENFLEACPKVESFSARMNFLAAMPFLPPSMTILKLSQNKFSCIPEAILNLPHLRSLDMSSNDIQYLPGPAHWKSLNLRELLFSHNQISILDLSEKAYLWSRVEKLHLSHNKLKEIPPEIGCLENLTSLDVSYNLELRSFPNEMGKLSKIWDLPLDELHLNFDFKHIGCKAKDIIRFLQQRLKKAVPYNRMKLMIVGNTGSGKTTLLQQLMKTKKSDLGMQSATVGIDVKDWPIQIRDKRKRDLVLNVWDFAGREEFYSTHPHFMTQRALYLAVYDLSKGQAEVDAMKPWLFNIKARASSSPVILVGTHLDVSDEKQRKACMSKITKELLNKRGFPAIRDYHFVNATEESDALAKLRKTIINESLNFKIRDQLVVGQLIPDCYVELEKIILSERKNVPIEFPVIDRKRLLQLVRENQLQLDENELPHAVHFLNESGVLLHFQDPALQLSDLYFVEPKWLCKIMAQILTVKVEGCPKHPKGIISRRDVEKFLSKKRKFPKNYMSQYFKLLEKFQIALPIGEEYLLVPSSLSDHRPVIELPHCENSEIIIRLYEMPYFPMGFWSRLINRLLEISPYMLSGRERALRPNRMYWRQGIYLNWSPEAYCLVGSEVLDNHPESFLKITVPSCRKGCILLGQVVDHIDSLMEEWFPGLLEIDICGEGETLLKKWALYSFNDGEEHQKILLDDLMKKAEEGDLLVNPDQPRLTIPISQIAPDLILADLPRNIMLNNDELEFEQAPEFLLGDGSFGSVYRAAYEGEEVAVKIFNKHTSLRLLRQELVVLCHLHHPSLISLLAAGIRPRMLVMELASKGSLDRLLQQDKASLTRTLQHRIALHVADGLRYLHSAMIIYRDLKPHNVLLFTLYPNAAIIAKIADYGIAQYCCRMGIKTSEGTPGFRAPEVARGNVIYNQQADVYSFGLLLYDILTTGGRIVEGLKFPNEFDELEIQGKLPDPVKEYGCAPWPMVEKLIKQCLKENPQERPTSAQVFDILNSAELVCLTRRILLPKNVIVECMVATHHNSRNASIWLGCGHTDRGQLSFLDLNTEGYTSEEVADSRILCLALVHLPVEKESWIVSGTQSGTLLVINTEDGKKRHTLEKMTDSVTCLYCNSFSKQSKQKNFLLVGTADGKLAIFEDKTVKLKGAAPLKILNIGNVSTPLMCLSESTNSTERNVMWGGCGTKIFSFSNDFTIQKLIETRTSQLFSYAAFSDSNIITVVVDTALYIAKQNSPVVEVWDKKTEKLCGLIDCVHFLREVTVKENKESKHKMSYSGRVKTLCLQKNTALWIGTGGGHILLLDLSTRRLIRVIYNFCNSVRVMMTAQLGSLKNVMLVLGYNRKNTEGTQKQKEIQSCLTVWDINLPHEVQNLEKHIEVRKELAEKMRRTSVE
Assay type: biochemical
Protocol: FIGS. 4A and 4B. Modulation of in vitro kinase activity by LRRK2-targeting Nbs. (FIG. 4A) Effect of selected LRRK2-targeting Nbs on LRRK2 kinase activity measured using the fluorescence-based PhosphoSens® Protein Kinase Assay, using the LRRK2-optimized AQT0615 peptide as substrate at a fixed concentration of 10 μM, and in the presence of 1 mM or 0.1 mM ATP, respectively. The influence of the different Nbs at a concentration of 25 μM on the relative kinase activity compared to the control where no Nb was added (“No Nb”) is plotted. […] (FIG. 4B) The influence of the different Nbs (25 μM) on the relative kinase activity compared to the “No-Nb” control is plotted, either in presence of 500 μM GDP (top) or 500 μM GTPγS (bottom). […] Each bar reflects the average (±SD) of three independent measurements.
Hereto, we used the fluorescence-based PhosphoSens® Protein Kinase Assay (AssayQuant Technologies Inc.), using the LRRK2-optimized AQT0615 peptide as substrate at a fixed concentration of 10 μM. The increase in fluorescence (Δexc:360 nm; Δemm:485 nm) due to LRRK2-catalyzed peptide phosphorylation was measured continuously in time under initial rate conditions at an ATP concentration of either 0.1 and 1 mM. Subsequently, the 10 Nbs were added at a final concentration of 25 μM and the effect on the initial rate was determined in triplicate (FIG. 4A). Two negative controls, where either no Nb or an irrelevant Nb was added, were also included. […] These experiments were performed in addition with LRRK2 either in the presence of a large excess (500 μM) of GDP or GTPγS (FIG. 4B), but no significant influence of the nucleotide on the inhibition profile was observed.
The Nb concentration was varied from 200 or 150 μM to 0.006 μM in a two-fold serial dilution, while keeping the peptide and ATP substrate concentrations constant at 10 μM and 1 mM, respectively (FIG. 11A-C).
The influence of the purified Nbs on LRRK2 kinase activity was determined using the PhosphoSens® Protein Kinase Assay (AssayQuant Technologies Inc.) using the optimized LRRK2 AQT0615 peptide as substrate and according to the manufacturers' instructions. The continuous kinase assay was performed in a total volume of 50 μL in a black half area 96 well plate. Each reaction mixture contained 10 μM AQT0615 peptide substrate/probe, either 0.1 mM or 1 mM ATP and 500 μM of either GDP, or GTPγS in a buffer consisting of 50 mM HEPES pH 7.5, 0.1% Brij-35, 50 mM NaCl and 10 mM MgCl2. The reaction was initiated by addition of a final concentration of 80 nM of LRRK2 either in absence or presence of 25 μM Nb. Prior to addition, LRRK2 and the Nbs were pre-incubated for 30 minutes on ice. The LRRK2-catalyzed phosphorylation of the peptide substrate/probe is followed continuously at 30° C. in a plate reader with excitation and emission wavelength of 360 nm and 485 nm respectively. Time traces were corrected by subtracting the “no LRRK2” control. The initial rates were determined from the slope of the linear portion of the curve.
To determine IC50 values the Nb concentration was varied from 150 μM to 0.006 μM using a two-fold serial dilution. In these assays a final LRRK2 concentration of 150 nM and an ATP concentration of 1 mM was used. The relative LRRK2 activity (compared to the “no nanobody” control) was plotted against the logarithmic Nb concentration and fitted on a three-parameter log(inhibitor) vs response equation in the GraphPad Prism software. All time traces were collected in triplicate.
For B1, the “effect on in vitro LRRK2 kinase activity” value was “no inhibitory effect could be observed in vitro”.
For B2, the “effect on in vitro LRRK2 kinase activity” value was “(to a lesser extent) Nb23 (CA13612), have a very clear significant inhibiting effect”.
In the case of B3, the “effect on in vitro LRRK2 kinase activity” value is reported as “activates the kinase activity of LRRK2 in vitro”.
For B4, the “effect on in vitro LRRK2 kinase activity” value was “very clear significant inhibiting effect”.
In the case of B5, the “effect on in vitro LRRK2 kinase activity” value is reported as “very clear significant inhibiting effect”.

The molecules below were run against T2, LRRK2 (Homo sapiens, UniProt Q5S007, M2397T/R50H) (assay: Competition ELISA titration). Conditions: AdoCbl, 250 μM; Nb 450 nM to 0.2 nM.
T2 construct: Full-length human LRRK2 was expressed and purified based on previously developed protocols; SF tag (FLAG-tag + Twin-Strep-tag); made in house; host or cells: HEK 293T
T2 sequence (Q5S007 whole entry R50H/M2397T): as above
Assay type: binding
Text: LRRK2 was coated in the wells of the ELISA plate and the ELISA signal for a dilution series of the respective Nbs (detected via their C-terminal EPEA-tag) is plotted in function of the Nb concentration. […] A “no antigen control”, where no LRRK2 was coated on the bottom of the well, is also included.
Most currently described LRRK2 inhibitors bind directly to the ATP-binding pocket of the kinase domain. […] Two of the in vitro kinase activity inhibiting Nbs described herein (Nb 1 and Nb6) bind LRRK2 predominantly via interactions with the COR-B domain, thus proposing a novel mechanism of action, and thereby excluding a mechanism of inhibition similar to these previously described LRRK2 kinase inhibitors that all directly interact with the kinase domain. […] To verify and confirm that Nb1, Nb6 and Nb23 bind LRRK2 in a different mode than any known small molecule kinase inhibitor, thus also different that the reported vitamin B12 forms, a competition ELISA titration experiment was performed (FIGS. 17A-17C). In this experimental setup, the ELISA experiment was performed using a fixed concentration of LRRK2 coated on the bottom of the ELISA plate, and using a dilution series of either of the three Nbs ranging from 450 nM to 0.2 nM. Detection of Nb binding in ELISA is performed using their C-terminal EPEA-tag, resulting in a dose-response titration curve reflecting an apparent affinity of the Nbs. […] Additionally, as a positive control, a repetition of the setup was performed in presence of an excess (9 μm) of the corresponding untagged Nb.
The ELISA experiment was performed similar as described above, using a fixed concentration of LRRK2 coated on the bottom of the ELISA plate, and using a 1:4 dilution series of Nb1, Nb6 or Nb23 ranging from 450 nM to 0.2 nM. Detection of Nb binding was performed using the C-terminal EPEA tag of the Nbs as described before, resulting in a dose response titration curve reflecting an apparent affinity of the Nbs. […] A “no antigen control”, where no LRRK2 was coated on the bottom of the well, was also included. The absorbance signal (A405 nm) was read out at different time points and the A405 nm at 0.5 h (Nb6 and Nb23) or 10 h (Nb1) was plotted in function of the Nb concentration.
In the case of B2, the “shift of the Nb ELISA titration curve in presence of AdoCbl” value (shortened to “shift … of AdoCbl”) is reported as “no rightward shift is observed”.
In the case of B4, the “shift … of AdoCbl” value is reported as “no rightward shift is observed”.
In the case of B5, the “shift … of AdoCbl” value is reported as “no rightward shift is observed”.

Same assay, conditions: large excess of MLi-2 (1 μM); Nb 450 nM to 0.2 nM
With B2 the “shift of the Nb ELISA titration curve in presence of MLi-2” value (shortened to “shift … of MLi-2”) was “no rightward shift is observed”.
With B4 the “shift … of MLi-2” value was “no rightward shift is observed”.
B5 was tested, and the “shift … of MLi-2” value was “no rightward shift is observed”.
